Experimental findings from publication PMC10443397 are described below.

The target of the assay is triple-phosphorylated Schizosaccharomyces pombe Dss1, fluorescein-labelled on the C-terminal cysteine (S. pombe) (UniProt O14140). The assay is described as follows: MST.

B1: FHA domain of Schizosaccharomyces pombe Dma1 (residues 25-160) (domain or fragment)
chain: DKISIRLTNFVGPNAHSFSFDPLVRYWNRKQNNLPIYIGRYTERYNGGDVSAIVFRSKVVSRRHAQIFYENNTWYIQDMGSSSGTFLNHVRLSPPSKTSKPYPISNNDILQLGADYRGGHEVNYRCVRARVELNNS
One may read the Kd as the concentration at which binding is half-saturated. High values mean a looser complex, low ones a tighter complex. In turn, B1 returned a Kd of 1.3 µM. This counts as single-digit micromolar.
